{"source": "paper PMC7393355", "about": "“A FRET-based screening method to detect potential inhibitors of the binding of CNNM3 to PRL2” (Scientific Reports, 2020)", "molecules": {"B1": {"name": "PRL1: purified non-fluorescence protein-tagged human PRL1 (protein)", "chain": "MARMNRPAPVEVTYKNMRFLITHNPTNATLNKFIEELKKYGVTTIVRVCEATYDTTLVEKEGIHVLDWPFDDGAPPSNQIVDDWLSLVKIKFREEPGCCIAVHCVAGLGRAPVLVALALIEGGMKYEDAVQFIRQKRRGAFNSKQLLYLEKYRPKMRLRFKDSNGHRNNCCIQ"}, "B2": {"name": "non-YPet-tagged CNNM3: purified non-fluorescence-tagged CBS domain of human CNNM3 (protein)", "chain": "YSDLSKGVLRCRTVEDVLTPLEDCFMLDASTVLDFGVLASIMQSGHTRIPVYEEERSNIVDMLYLKDLAFVDPEDCTPLSTITRFYNHPLHFVFNDTKLDAVLEEFKRGKSHLAIVQKVNNEGEGDPFYEVLGLVTLEDVIEEIIRSEILDE", "modifications": "left off: His tag (from the vector pET28a and the Ni-NTA purification), end not stated, state not stated"}, "B3": {"name": "CNNM3 CBS domain D426A mutant: CNNM3 CBS domain with D426A mutation at the PRL2-binding site (protein)", "chain": "B2 chain with D126A", "modifications": "left off: His tag (from the vector pET28a and the Ni-NTA purification), end not stated, state not stated"}, "B4": {"name": "PRL2: purified non-fluorescence protein-tagged human PRL2 (residues 1–167) (protein)", "chain": "MNRPAPVEISYENMRFLITHNPTNATLNKFTEELKKYGVTTLVRVCDATYDKAPVEKEGIHVLDWPFDDGAPPPNQIVDDWLNLLKTKFREEPGCCVAVHCVAGLGRAPVLVALALIECGMKYEDAVQFIRQKRRGAFNSKQLLYLEKYRPKMRLRFRDTNGHCCVQ", "modifications": "left off: His tag (from the vector pET28a and the Ni-NTA purification), end not stated, state not stated"}}, "test_system": "binding of CNNM3-YPet and CyPet-PRL2 (CNNM3-PRL2 complex)", "assay": "FRET-based inhibition test of the binding of CNNM3-YPet and CyPet-PRL2", "design": "species or system human", "conditions": "CNNM3-YPet 200 nM, CyPet-PRL2 200 nM, n = 6; for FRET intensity abolished / inhibition of complex formation: pre-incubated 20 min R.T. with binding partner, TBS pH 8.0, mean", "protocol": "FRET measurements were conducted in TBS (50 mM Tris–HCl (pH 8.0) and 150 mM NaCl). Proteins were mixed in 96-well plates and incubated at R.T. for 1 h. Fluorescence intensities were measured using an excitation wavelength of 435 nm and an emission wavelength of 530 nm with a Cytation 3 (BioTek).\nThe emission spectra were measured with each component at 200 nM using the Cytation 3 (BioTek) with 435 nm excitation (Supplementary Fig. 2), and the original data are shown in Supplementary Table 1. The FRET intensity was calculated by Eq. (1).1 IFRET=IA-raw-Dleakage-Adirect where IA-raw is the intensity measured at 530 nm with 435 nm excitation, Dleakage is the leakage of the donor emission into the acceptor wavelength (530 nm) upon donor excitation, and Adirect is the direct excitation of the acceptor with the donor wavelength (435 nm).\nThe inhibition of complex formation was assayed by pre-incubating the binding partner (200 nM) with inhibitory factors (1, 10 μM) for 20 min at R.T., followed by addition of the other protein (200 nM) (Figs. 3B, 4C). The effects of divalent cations (10 mM) and nucleotides (3 mM) were also assayed similarly (Fig. 5).\nThe peptides for the peptide inhibition test were synthesized by Shanghai Dechi Biosciences (Fig. 6C,D). The peptide sequences were as follows: peptide 1, IVQKVNNEGEGDPFYEVLG; peptide 2, […] (an S–S bond was formed between the cysteine residues, as verified by HPLC and mass spectrometry). The peptides were dissolved in TBS buffer at 10 mM before use.\nFRET data were evaluated by subtracting backgrounds (fluorescence intensities of CyPet-PRL2, CNNM3-YPet and a blank well). All data analysis was performed using GraphPad Prism 6 (GraphPad Software) with the methods described in each legend.", "note": "Numbering of substitutions follows the chain as printed. Names may count otherwise."}
{"molecule": "B1", "values": [{"measurement": "FRET intensity abolished / inhibition of complex formation", "setting": "inhibitory protein 1 μM", "result": 61.6, "unit": "%"}, {"measurement": "FRET intensity abolished / inhibition of complex formation", "setting": "inhibitory protein 10 μM", "result": 90.0, "unit": "%"}]}
{"molecule": "B2", "values": [{"measurement": "FRET intensity abolished / inhibition of complex formation", "setting": "inhibitory protein 1 μM", "result": 77.7, "unit": "%"}, {"measurement": "FRET intensity abolished / inhibition of complex formation", "setting": "inhibitory protein 10 μM", "result": 89.2, "unit": "%"}]}
{"molecule": "B3", "values": [{"measurement": "FRET intensity abolished / inhibition of complex formation", "setting": "inhibitory protein 10 μM", "result": 12.9, "unit": "%"}, {"measurement": "effect of added protein on FRET intensity (in words)", "setting": "inhibitory protein 1 and 10 μM", "result": "little effect on the FRET intensity"}]}
{"molecule": "B4", "values": [{"measurement": "FRET intensity abolished / inhibition of complex formation", "setting": "inhibitory protein 1 μM", "result": 85.5, "unit": "%"}, {"measurement": "FRET intensity abolished / inhibition of complex formation", "setting": "inhibitory protein 10 μM", "result": 89.7, "unit": "%"}]}
